According to patent publication US11766414B2, “Compositions, delivery systems, and methods useful in tumor therapy” (Indi Molecular, Inc., priority 2020, dated 2023):
Starred links: 1 amine or outer side, 2 acyl side, 3 side chain; linkers in the order of their positions; H or OH if unused. Positions of bridges follow the written chain, without caps; N, C: chain ends. Non-standard residues stand in square brackets, D forms with d. Residues, ends and D or L forms follow the SMILES beside them. Groups on a side chain read outwards from the residue. Triazole bridges read from a SMILES are 1,4-linked. *: point of attachment. DOTA = O=C(O)CN1CCN(CC(=O)O)CCN(CC(=O)*)CCN(CC(=O)O)CC1; Pteroyl = Nc1nc2ncc(CNc3ccc(C(=O)*)cc3)nc2c(=O)[nH]1; Biotin = O=C1N[C@H]2[C@H](CS[C@H]2CCCCC(=O)*)N1; Butanoyl(4-(4-MePh)) = Cc1ccc(CCCC(=O)*)cc1; Lys(N3) = [N-]=[N+]=NCCCC[C@H](N)C(=O)O; γGlu = O=C(O)[C@H](CCC(=O)[*:2])N[*:1]; AEEEA = NCCOCCOCCOCC(=O)O; Pra = C#CC[C@H](N)C(=O)O; X1 = NOCC(=O)*

How the values were obtained:
OVCAR3 xenograft [1] = assay: 177Lu FOLR1 radioligand therapy of OVCAR3 xenografts; format: in vivo, mouse; conditions: for tumor response: single dose at 18.5 MBq/nmol, tumor size (avg.) 148 mm^3
Description: Water and food were provided ad libitum. […] Tumor growth was monitored by caliper measurements.
OVCAR3 tumor bearing mice were used to study FOLR1-directed radioligand therapy (RLT) for treatment of ovarian cancer. Animals were administered a single dose of heterobiligand (vehicle control) or 111, 37, 18.5, 9.25, or 3.7 MBq [^177Lu]DOTA-labeled heterobiligand. Mice received the dose intravenously (i.v.) via the tail vein. To monitor the effect of the RLT, tumor size measurements were taken twice weekly and body weights were measured.
Single dose treatments at 18.5 MBq/nmol specific activity. OVCAR3 mouse model was used. 10^7 cell tumors were implanted in the mice one month before administration of ^177Lu-#6305. Five mice each were administered Cold #6305, 9.25 MBq Lu177-#6305, and 14.8 MBq Lu177-#6305, and two mice were administered 29.6 MBq Lu177-#6305. Tumor growth and body weight were then monitored.
Female NSG mice were implanted subcutaneously with OVCAR3 cells. Once tumors reached volumes of 200 mm^3, the animals were treated with 177-Lu 7327. Three treatment arms of 9.25 MBq, 14.8 MBq, and 29.6 MBq were studied.

[2] = Gamma counting of tissue radioactivity; format: in vivo, mouse; conditions: for kidney radioactivity / liver radioactivity / tumor radioactivity: Day 28 post-injection
Text: 7 days after Lu177-#6305 injection, the 29.6 MBq group lost 20% body weight. These mice were sacrificed. Tissues and plasma were collected for evaluation of radioactivity by gamma counting. The toxicity may have resulted from its accumulation in the kidneys and liver (FIG. 28). At study endpoint (Day 28 post-injection), plasma, tumors, kidneys, lungs, hearts, livers, and muscles from 9.25 MBq and 14.8 MBq treatment groups were collected for evaluation of radioactivity by gamma counting (FIG. 29).

OVCAR3 xenograft [3] = assay: 177Lu FOLR1 radioligand therapy of OVCAR3 xenografts; format: in vivo, mouse; conditions: single dose
[4] = Maximum tolerated dose (MTD) tolerability study
Description: In order to establish a maximum tolerated dose (MTD), a tolerability study was undertaken testing increasing amounts of the 177-Lu heterobiligand 7327 (folate-hshta-Gly-Phe-Lys(DOTA)). Animals were monitored for signs of toxicity and weighed twice weekly. […] The second and third doses were administered 21 days following the previous dose.
Efforts were undertaken to evaluate 177-Lu 6305 (folate-hshta-Lys(MPBA)-Gly-Phe-Lys(DOTA)), a compound with a brush border cleavable linker in addition to an albumin binder. […] Two separate MTD experiments were undertaken. […] A second experiment interrogated lower doses.
In order to establish a MTD, dose range finding studies were undertaken testing increasing amounts of Indi ^177Lu-7327 in healthy, non-tumor bearing female NSG mice using IV administration (FIGS. 34 and 35). Mouse body weight and behavior were monitored. […] The second and third doses were administered 21 days following the previous dose.

[5] = Plasma protein binding, human plasma; format: in vitro ADME; conditions: for recovery / fraction unbound: human plasma; for fraction unbound: read-out: Plasma % Bound, Hu (converted)
Description: (§1) HTD 96 a/b regenerated cellulose membrane strips with mass cutoff of 12-14 kDa were soaked in ultra-pure water at room temperature for 1 hour. Each swelled membrane was then soaked in 20:80 ethanol:water for 20 minutes.
(§2) Just prior to the experiment, the membranes were re-soaked in ultra-pure water. Plasma was prepared by thawing under cold water. The plasma was centrifuged to remove any clots and pH was adjusted to 7.0-8.0. Test articles and control compounds were diluted to 2 μM. The dialysis device was loaded by transferring 150 μL of the test article (in triplicate) to the donor side. The dialysis device was placed in a humidified incubator at 37° C. with 5% CO2 in a shaking platform that rotated slowly for 4 hours. After incubation, 50 μL of the supernatant was taken from both sides and analyzed by LC-MS/MS.

[6] = Plasma protein binding, CD-1 mouse plasma; format: in vitro ADME; conditions: for fraction unbound / recovery: CD-1 mouse plasma; for fraction unbound: read-out: Plasma % Bound, Mu (converted)
Description: as §1, §2

human recombinant NEP = human recombinant NEP (Homo sapiens, UniProt P08473); assay: NEP enzymatic cleavage assay (MALDI, HPLC); format: biochemical
Sequence of human recombinant NEP (P08473 whole entry): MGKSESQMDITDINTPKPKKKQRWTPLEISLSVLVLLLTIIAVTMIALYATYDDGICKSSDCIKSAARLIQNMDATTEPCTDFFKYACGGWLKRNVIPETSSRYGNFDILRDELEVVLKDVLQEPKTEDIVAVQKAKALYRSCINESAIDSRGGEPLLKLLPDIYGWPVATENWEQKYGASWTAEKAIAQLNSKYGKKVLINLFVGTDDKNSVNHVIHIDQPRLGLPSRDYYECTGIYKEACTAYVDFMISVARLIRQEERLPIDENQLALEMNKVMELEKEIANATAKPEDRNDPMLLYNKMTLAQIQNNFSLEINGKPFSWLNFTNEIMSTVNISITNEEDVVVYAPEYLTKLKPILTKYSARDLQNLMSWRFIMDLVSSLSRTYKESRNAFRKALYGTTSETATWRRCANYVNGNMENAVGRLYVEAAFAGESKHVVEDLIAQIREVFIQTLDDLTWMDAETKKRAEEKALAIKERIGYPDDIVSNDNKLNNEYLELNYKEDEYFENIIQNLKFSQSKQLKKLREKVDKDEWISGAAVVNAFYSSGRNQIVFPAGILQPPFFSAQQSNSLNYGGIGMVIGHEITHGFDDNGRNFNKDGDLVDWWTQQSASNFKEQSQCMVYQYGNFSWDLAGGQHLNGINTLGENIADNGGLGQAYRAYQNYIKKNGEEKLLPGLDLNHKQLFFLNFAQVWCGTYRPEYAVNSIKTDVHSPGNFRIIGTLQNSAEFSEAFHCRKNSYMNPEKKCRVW
Description: In order to test the susceptibility of GFK and MVK linkers to NEP-mediated cleavage, the peptide (Folate-hshta-Lys(MPBA)-Gly-Phe-Lys(DOTA) (SEQ ID NO:6)) was incubated with human recombinant NEP and analyzed the solution for the presence of cleaved adducts. MALDI was utilized to monitor the cleavage of a PCC heterobiligand that contains a NEP protease recognizable sequence (G-F-K). The PCC concentration was constant and the NEP concentration was titrated down from 10 nM to 1 nM, 0.1 nM, 0.01 nM, and no NEP. The NEP-mediated cleaved adduct was identified by mass. 10 μM PCC containing the GFK linker was combined with varying amounts of NEP. […] Below 0.1 nM no cleavage was observed. • Folate-hshta-Lys(MPBA)-Gly-Phe-Lys(DOTA) (SEQ ID NO:6) • Molecular weight 2231.42
The NEP-mediated cleavage was also monitored by HPLC. In agreement with the MALDI spectra, the HPLC chromatograms show depletion of the parent brush-border heterobiligand (retention time 17.1 minutes), dose-dependent on the amount of NEP spiked into the sample (10 nM, 1 nM, 0.1 nM, 0.01 nM, and no NEP). An appearance of a new peak (retention time 16.5 minutes) in concert with the depletion of the starting material is presumed to be the cleaved folate-containing peptide.
In order to test the specificity of NEP, a non-cleavable linker (PEG3) was also assayed.
To reduce the radioactive dose to the kidney, Indi ^177Lu-7327 was constructed to incorporate a GFK linker that is susceptible to cleavage by enzymes found predominately in the kidney's brush border. These enzymes cleave off the radionuclide-chelator complex, which is quickly eliminated by the kidney for excretion in the urine. The zinc metalloprotease neprilysin (NEP) is expressed with high abundance in the kidney. […] To confirm NEP-mediated cleavage of the GFK linker in Indi 7327, the peptide was incubated with recombinant human NEP at 37° C. for 1 h and analyzed by matrix-assisted laser desorption/ionization mass spectrometry (MALDI-MS) for the evolution of cleaved adducts (FIG. 42). […] The expected cleaved adduct (mass: 1283.16 m/z) appears in the samples containing 10, 1.0, and 0.1 nM NEP. […] Below 0.1 nM NEP, no cleavage was observed. In addition to confirming the selectivity of NEP for the GFK linker, it is also important to note that the remaining portions of the Indi 7327 were impervious to the enzyme.

[7] = test system: OVCAR3 FOLR1+ cells (PC-3 FOLR1− cells as negative line); assay: Flow cytometry binding to FOLR1 (+) and FOLR1 (−) cell lines; format: cell-based, human; conditions: OVCAR3 vs PC-3, flow cytometry
Description: Both the kyeet (SEQ ID NO:9) and hshta (SEQ ID NO:6)-derived biligands were tested by flow cytometry for binding to FOLR1 (+) and FOLR1 (−) cell lines (FIGS. 6 and 7). The human ovarian adenocarcinoma-derived cell line OVCAR3 has robust FOLR1 expression and was selected as the FOLR1 (+) cell line. The human prostate adenocarcinoma-derived cell line PC-3 was selected as a FOLR1 (−) cell line.

[8] = 29.6 MBq group, Day 7 post-injection
[9] = read-out: Plasma protein binding % Recovery, Hu
[10] = read-out: Plasma protein binding % Recovery, Mu

For `Cc1ccc(CCCC(=O)NCCCC[C@H](NC(=O)[C@@H]2CCCCn3cc(nn3)C[C@H](NC(=O)CC[C@H](NC(=O)c3ccc(NCc4cnc5nc(N)[nH]c(=O)c5n4)cc3)C(=O)O)C(=O)N[C@H](Cc3c[nH]cn3)C(=O)N[C@H](CO)C(=O)N[C@H](Cc3c[nH]cn3)C(=O)N[C@H]([C@H](C)O)C(=O)N[C@H](C)C(=O)N2)C(=O)NCC(=O)N[C@@H](Cc2ccccc2)C(=O)N[C@@H](CCCCNC(=O)CN2CCN(CC(=O)O)CCN(CC(=O)O)CCN(CC(=O)O)CC2)C(=O)O)cc1` (177Lu complex, metal not drawn) [Lu177-#6305] ({Pteroyl-γGlu}-[Pra][dH][dS][dH][dT][dA][Lys(N3)]K(Butanoyl(4-(4-MePh)))GFK(DOTA)-OH; triazole 1-7), the body weight change (OVCAR3 xenograft [1]; 9.25 MBq and 14.8 MBq, single dose) was “No significant body weight change”, the tumor response (OVCAR3 xenograft [1]; 9.25 MBq) was “nonresponse” and the tumor response (OVCAR3 xenograft [1]; 14.8 MBq) was “partial response”. The body weight lost (OVCAR3 xenograft [1]; 29.6 MBq group, 7 days after injection) was 20%, the kidney radioactivity ([2]; 9.25 MBq group) was 414 CPM/g and the liver radioactivity ([2]; 9.25 MBq group) was 685 CPM/g. For the same molecule, the tumor radioactivity ([2]; 9.25 MBq group) was 33 CPM/g, the liver/kidney ratio ([2]; 14.8 MBq group on Day 28) was 1.94 and the kidney radioactivity ([2]; 14.8 MBq group) was 653 CPM/g. The liver radioactivity ([2]; 14.8 MBq group) was 1,264 CPM/g, the tumor radioactivity ([2]; 14.8 MBq group) was 60 CPM/g and the liver/kidney ratio ([2]; 29.6 MBq group on Day 7) was 0.27. For the same molecule, the “radioactivity in the kidney” value [2, 8] was 394,834 CPM/g, the “radioactivity in the liver” value [2, 8] was 107,374 CPM/g and the “radioactivity in the tumor” value [2, 8] was 42,674 CPM/g. For the same molecule, the OVCAR3 tumor growth (OVCAR3 xenograft [3]; 14.8 MBq) was “significantly slowed down OVCAR3 tumor growth”, the body weight change (OVCAR3 xenograft [3]; 29.6 MBq) was “substantial body weight decrease” and the “tolerability of second dose” value ([4]; 14.8-22.2 MBq, second dose administered 21 days) was “not tolerated”. The “tolerability of second dose” value ([4]; 29.6-185 MBq, second dose 7 days after the first) was “not tolerated”, the body weight ([4]; 29.6 MBq, 37 MBq, 111 MBq, and 185 MBq, first dose) was “began to experience weight loss after the first dose” and the body weight ([4]; single dose of 14.8 MBq, 18.5 MBq, and 22.2 MBq) was “only minimal loss in body weight that quickly stabilized”.

`Cc1ccc(CCCC(=O)NCCCC[C@H](NC(=O)[C@@H]2CCCCn3cc(nn3)C[C@H](NC(=O)CC[C@H](NC(=O)c3ccc(NCc4cnc5nc(N)[nH]c(=O)c5n4)cc3)C(=O)O)C(=O)N[C@H](Cc3c[nH]cn3)C(=O)N[C@H](CO)C(=O)N[C@H](Cc3c[nH]cn3)C(=O)N[C@H]([C@H](C)O)C(=O)N[C@H](C)C(=O)N2)C(=O)NCC(=O)N[C@@H](Cc2ccccc2)C(=O)N[C@@H](CCCCNC(=O)COCCOCCOCCNC(=O)CN2CCN(CC(=O)O)CCN(CC(=O)O)CCN(CC(=O)O)CC2)C(=O)O)cc1` [compound 3302, Fol-hshta-Lys(4-MPBA)-Gly-Phe-Lys(PEG3-DOTA)] ({Pteroyl-γGlu}-[Pra][dH][dS][dH][dT][dA][Lys(N3)]K(Butanoyl(4-(4-MePh)))GFK([AEEEA-DOTA])-OH; triazole 1-7) showed a recovery [5, 9] of 88.1%, a fraction unbound ([5]; human, plasma) of 0.051 and a fraction unbound [6] of 0.035. The recovery [6, 10] was 103% and the “in vitro Assay Data (NEP assay)” value (human recombinant NEP; Table 2) was “Cleavage of -G-F-K-”.

Molecule `C[C@H](O)[C@H]1NC(=O)[C@@H](Cc2cnc[nH]2)NC(=O)[C@@H](CO)NC(=O)[C@@H](Cc2cnc[nH]2)NC(=O)[C@@H](NC(=O)CC[C@H](NC(=O)c2ccc(NCc3cnc4nc(N)[nH]c(=O)c4n3)cc2)C(=O)O)Cc2cn(nn2)CCCC[C@@H](C(=O)NCC(=O)N[C@@H](Cc2ccccc2)C(=O)N[C@@H](CCCCNC(=O)CON)C(=O)O)NC(=O)[C@@H](C)NC1=O` [compound 3303, Fol-hshta-Gly-Phe-Lys(AO)] ({Pteroyl-γGlu}-[Pra][dH][dS][dH][dT][dA][Lys(N3)]GFK(X1)-OH; triazole 1-7) has a fraction unbound at 4 h, 2 μM ([5]; human, plasma, AO-containing constructs, (FB), read-out: Plasma % Bound, Hu) of 0.19, a recovery at 4 h, 2 μM ([5]; human, plasma, AO-containing constructs, (FB), read-out: Plasma protein binding % Recovery, Hu) of 80.6% and a fraction unbound at 4 h, 2 μM ([6]; CD-1, mouse, plasma, AO-containing constructs, (FB), read-out: Plasma % Bound, Mu) of 0.245. The recovery at 4 h, 2 μM ([6]; CD-1, mouse, plasma, AO-containing constructs, (FB), read-out: Plasma protein binding % Recovery, Mu) was 77.7% and the “in vitro Assay Data (NEP assay)” value (human recombinant NEP; Table 7, AO-containing constructs) was “Cleavage of —G—F—K-”.

With `C[C@H](O)[C@H]1NC(=O)[C@@H](Cc2c[nH]cn2)NC(=O)[C@@H](CO)NC(=O)[C@@H](Cc2c[nH]cn2)NC(=O)[C@@H](NC(=O)CC[C@H](NC(=O)c2ccc(NCc3cnc4nc(N)[nH]c(=O)c4n3)cc2)C(=O)O)Cc2cn(nn2)CCCC[C@@H](C(=O)NCCOCCOCCOCC(=O)NCC(=O)N[C@@H](Cc2ccccc2)C(=O)N[C@@H](CCCCNC(=O)CN2CCN(CC(=O)O)CCN(CC(=O)O)CCN(CC(=O)O)CC2)C(=O)O)NC(=O)[C@@H](C)NC1=O` [compound 6307, Fol-hshta-PEG3-Gly-Phe-Lys(DOTA)] ({Pteroyl-γGlu}-[Pra][dH][dS][dH][dT][dA][Lys(N3)][AEEEA]GFK(DOTA)-OH; triazole 1-7) the recovery [5, 9] was 81.6%, the fraction unbound ([5]; human, plasma) was 0.587 and the fraction unbound [6] was 0.594. For the same molecule, the recovery [6, 10] was 68.9% and the “in vitro Assay Data (NEP assay)” value (human recombinant NEP; Table 2) was “Cleavage of -G-F-K-”.

With `C[C@H](O)[C@H]1NC(=O)[C@@H](CCC(=O)O)NC(=O)[C@@H](CCC(=O)O)NC(=O)[C@@H](Cc2ccc(O)cc2)NC(=O)[C@@H](CCCCN)NC(=O)[C@@H](NC(=O)COCCOCCOCCNC(=O)CCCC[C@@H]2SC[C@@H]3NC(=O)N[C@@H]32)Cc2cn(nn2)CCCC[C@@H](C(N)=O)NC1=O` [kyeet] ({Biotin-AEEEA}-[Pra][dK][dY][dE][dE][dT][Lys(N3)]-NH2; triazole 1-7) the “binding selectivity for FOLR1 (+) cells over FOLR1 (−) cells” value [7] was “slight binding selectivity”.
